In paper PMC11508043 (Nature, 2023):

Target: Recombinant wild-type human histone H1.0 (human)
Test: turbidity

ProTα:H1 ratio at maximum phase separation: 1.2 ProTα:H1
B1: ProTα (unlabelled) (natural protein, human)
chain: GPMSDAAVDTSSEITTKDLKEKKEVVEEAENGRDAPANGNANEENGEQEADNEVDEEEEEGGEEEEEEEEGDGEEEDGDEDEEAESATGKRAAEDDEDDDVDTKKQKTDEDD
